Laboratory results published in the supplement of paper PMC10724198.

What was measured:
Saccharomyces cerevisiae [1] = assay: protein stability index of tFT-peptide fusion in wild type (PSI (0-1 scale)); higher = more stable (slower turnover); conditions: genetic background: wild type
Experimental: (§1)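 MPS profiling in S. cerevisiae of two library types built from selected 12-aa C-degron peptides (IN1, IN2, LN1, LN3, VN2, R1-R5, W1-W3, Atg1 and Rpa12 C-termini): saturation mutagenesis libraries and C-terminal +1 capping libraries (13 aa). Each peptide is fused to the C-terminus of a sfGFP-mCherry timer, after a GGGS linker. Cells are FACS-sorted into 8 mCherry/sfGFP bins and sequenced. PSI runs from 0 (unstable) to 1 (stable), measured once in wild type and in the das1Δ or doa10Δ background.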

Saccharomyces cerevisiae [2] = assay: protein stability index of tFT-peptide fusion in deletion strain of DAS1 (PSI (0-1 scale)); higher = more stable (slower turnover)
Experimental: as §1
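For protein stability index of tFT-peptide fusion in deletion strain of DAS1 in this document: PSI is a weighted mean of each variant's read distribution over the sorted stability bins, computed only for variants having over 10 reads in total.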
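For protein stability index of tFT-peptide fusion in wild type in this document: PSI derived as read-weighted mean over the 8 sorting bins, only variants exceeding 10 total reads kept, mCherry placed adjacent to the peptide and sfGFP distal.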

Sequence | protein stability index (Saccharomyces cerevisiae [1]) | protein stability index (Saccharomyces cerevisiae [2])
LVKYLSCVACIN | 0.09 | 0.365
LVMYLSCVACIN | 0.0125 | 0.135
LVSYLSCVACIN | 0.0799 | 0.252
LVVVLSCVACIN | 0.0126 | 0.0377
LVVWLSCVACIN | 0.0122 | 0.0381
LVVYCSCVACIN | 0.0182 | 0.0283
LVVYLQCVACIN | 0.0274 | 0.0353
LVVYLSAVACIN | 0.0153 | 0.0365
LVVYLSCSACIN | 0.0177 | 0.0361
LVVYLSCVACDN | 0.249 | 0.272
LVVYLSCVACIH | 0.0123 | 0.0535
LVVYLSCVACIT | 0.0143 | 0.0345
LVVYLSCVACKN | 0.034 | 0.0769
LVVYLSCVADIN | 0.108 | 0.168
LVVYLSCVAGIN | 0.13 | 0.154
LVVYLSCVANIN | 0.0173 | 0.0788
LVVYLSCVAQIN | 0.014 | 0.0252
LVVYLSCVKCIN | 0.146 | 0.319
LVVYLSEVACIN | 0.264 | 0.286
LVVYLTCVACIN | 0.0129 | 0.0371
LVVYLYCVACIN | 0.0123 | 0.0269
MDKRNHLIKLLN | 0.111 | 0.702
MKILRQKMNHQN | 0.163 | 0.66
MRGAVGGWRLVG | 0.146 | 0.653
MRWRVGLWRGAS | 0.143 | 0.727

Sequence | protein stability index (Saccharomyces cerevisiae [1]) | protein stability index (Saccharomyces cerevisiae [2])
PCKRNHLIKLLN | 0.112 | 0.614
PCLAASFWRVVG | 0.128 | 0.68
PDKCNHLIKLLN | 0.209 | 0.586
PDKQNHLIKLLN | 0.189 | 0.593
PDKRCHLIKLLN | 0.0642 | 0.596
PDKRNHAIKLLN | 0.186 | 0.603
PDKRNHDIKLLN | 0.407 | 0.606
PDKRNHLIKFLN | 0.112 | 0.583
PDKRNHLIKLKN | 0.273 | 0.599
PDKRNHLIKLLM | 0.112 | 0.586
PDKRNHLIKLLV | 0.118 | 0.618
PDKRNHLIKLLY | 0.328 | 0.587
PDKRNHLIKLYN | 0.343 | 0.599
PDKSNHLIKLLN | 0.157 | 0.652
PIKRNHLIKLLN | 0.157 | 0.622
PNLAASFWRVVG | 0.144 | 0.694
PQLAASFWRVVG | 0.152 | 0.7
PRGAVGGWRLVG | 0.169 | 0.671
PRLAASFWRVVG | 0.197 | 0.691
PSIAASFWRVVG | 0.143 | 0.695
PSLAACFWRVVG | 0.141 | 0.675
PSLAAHFWRVVG | 0.155 | 0.694
PSLAAIFWRVVG | 0.138 | 0.645
PSLAASFPRVVG | 0.659 | 0.66
